Laboratory results taken from patent US7740853.

Molecular target: mouse low affinity IgE receptor FcεRII (mouse) (UniProt P20693)
Assay: FACS analysis of 0.12A3 cells with the B3B4 antibody

Chain of UniProt P20693 (P20693 whole entry): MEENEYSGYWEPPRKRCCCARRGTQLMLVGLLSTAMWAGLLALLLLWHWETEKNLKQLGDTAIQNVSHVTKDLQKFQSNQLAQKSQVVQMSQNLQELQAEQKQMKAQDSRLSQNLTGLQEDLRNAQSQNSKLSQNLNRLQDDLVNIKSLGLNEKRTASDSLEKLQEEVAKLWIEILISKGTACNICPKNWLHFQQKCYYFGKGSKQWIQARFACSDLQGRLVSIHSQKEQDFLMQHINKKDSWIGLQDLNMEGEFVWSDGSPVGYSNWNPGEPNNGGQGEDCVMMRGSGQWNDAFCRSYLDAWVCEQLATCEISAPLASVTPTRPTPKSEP

percent of cells on which the receptor was expressed: 54%
Substance: B3B4 antibody against the FcεRII receptor (Pharmigin)
